Reference: publication PMC7118729

Target: Nsp15 endoribonuclease WT (SARS coronavirus, UniProt P0C6X7 6430-6775)

Binder	IC50 [nM]	Ki [nM]
AAAAAAAAAAAAAAAA (ssRNA) [rA16]	53	7.6
UUUUUUUUUUUUUUUU (ssRNA) [rU16 (U16)]	15	2.3
